T1: mouse IL-4R (mouse, UniProt P16382 26-233, limits assumed)
T1 sequence (looked up): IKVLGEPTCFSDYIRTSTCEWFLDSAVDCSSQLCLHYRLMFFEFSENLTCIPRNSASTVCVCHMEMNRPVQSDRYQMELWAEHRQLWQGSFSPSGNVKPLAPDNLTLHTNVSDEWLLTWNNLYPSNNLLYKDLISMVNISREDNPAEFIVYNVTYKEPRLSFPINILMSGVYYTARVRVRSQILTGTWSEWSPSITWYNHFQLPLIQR


What was measured:
[1] = target: T2, human IL-4R on cells (293F/IL-4R cells; HEK293F cells with high IL-4Rα expression) (human, UniProt P24394 26-825); assay: cell-based or functional assay
[2] = target: T2, human IL-4R on cells (293F/IL-4R cells; …); assay: flow cytometry on HEK293F cells with high IL-4Rα expression, anti-human Fc-FITC
Protocol: (1) HEK293F cells with high IL-4Rα expression were collected, centrifuged at 1000 rpm for 5 min, and the supernatant was discarded. The cells were re-suspended with 5 mL PBS and centrifuged at 1000 rpm for 5 min, and the supernatant was discarded. Then the cells were re-suspended with 2 mL PBS, and counted. The cells were divided into 96-well plates with 3×10⁵ cells per well; (2) Humanized antibody huNb103 (amino acid sequence refers to SEQ ID NO:16) and Dupilumab were diluted by 2-fold gradient dilution (40 ug/mL, 20 ug/mL, 10 ug/mL, 5 ug/mL, 2.5 ug/mL, 1.25 ug/mL, 0.625 ug/mL, 0.313 ug/mL, 0.156 ug/mL, 0.078 ug/mL). The cells in the 96-well plate were resuspended with the diluted antibody and incubated at 4° C. for 20 min. (3) Centrifugation was performed at 3000 rpm at 4° C. for 4 min, and 200 ul PBS was added to each well. After resuspension, centrifugation was performed at 3000 rpm at 4° C. for 4 min. (4) Diluted anti-human Fc-FITC antibody (diluted at 1:200) was added and incubated at 4° C. for 20 min. (5) Centrifugation was performed at 3000 rpm at 4° C. for 4 min, and the supernatant was discarded, 200 uL PBS was added into each well to wash cells for two times, then 200 uL PBS was added to re-suspend the cells. The cells were transferred to flow tube to detect FITC signal of each sample via flow cytometry.

[3] = target: T2, human IL-4R on cells (293F/IL-4R cells; …); assay: flow cytometry blocking of IL-4/IL-4R on HEK293F cells with high IL-4Rα expression, SA-PE
Protocol: (1) HEK293F cells with high IL-4Rα expression were collected, centrifuged at 1000 rpm for 5 min, and the supernatant was discarded. The cells were re-suspended with 5 mL PBS and centrifuged at 1000 rpm for 5 min, and the supernatant was discarded. Then the cells were re-suspended with 2 mL PBS, and counted. The cells were divided into 96-well plates with 3×10⁵ cells per well. (2) Humanized antibody huNb103 (amino acid sequence refers to SEQ ID NO:16) and Dupilumab were diluted by 2-fold gradient dilution (40 ug/mL, 20 ug/mL, 10 ug/mL, 5 ug/mL, 2.5 ug/mL, 1.25 ug/mL, 0.625 ug/mL, 0.313 ug/mL, 0.156 ug/mL, 0.078 ug/mL). The cells in the 96-well plate were resuspended with the diluted antibody and incubated at 4° C. for 20 min. (3) Centrifugation was performed at 3000 rpm at 4° C. for 4 min, and 200 ul PBS was added to each well. After resuspension, centrifugation was performed at 3000 rpm at 4° C. for 4 min. (4) Diluted SA-PE staining solution (diluted at 0.3:100) was added and incubated at 4° C. for 20 min. (5) Centrifugation was performed at 3000 rpm at 4° C. for 4 min, and the supernatant was discarded, 200 uL PBS was added into each well to wash cells for two times, then 200 uL PBS was added again to re-suspend the cells. The cells were transferred to flow tube to detect PE signal of each sample via flow cytometry.

rhesus monkeys IL-4R = rhesus monkeys IL-4R (rhesus monkey, UniProt F6RUR0 26-232); assay: ELISA, coated IL-4R, same method as for FIG. 6
Protocol: (§1) ELISA was used to verify whether the candidate antibody could cross-react with IL-4R proteins of different species, and the method was as follows: (1) 1 ug/mL human IL-4R, mouse IL-4R and cynomolgus monkey IL-4R were added into the plate and coated overnight at 4° C. with 100 uL/well. (2) After washing with PBST for 5 times, 300 uL 1% BSA was added to each well and sealed for 2 hours at room temperature. (3) After washing with PBST for 5 times, 100 uL of 2 ug/mL antibody to be tested was added and incubated at 37° C. for 1 hour. (4) After washing with PBST for 5 times, 100 uL diluted anti-HA antibody (diluted at 1:2000) was added and incubated at 37° C. for 1 hour. (4) After washing with PBST for 5 times, 100 uL diluted anti-mouse IgG antibody (diluted at 1:2000) was added and incubated at 37° C. for 30 minutes. (5) After washing with PBST for 5 times, 100 uL PA chromogenic solution was added and developing at 37° C. for 10 minutes, and the absorption value was measured at 405 nm wavelength with a microplate reader. The results are shown in FIG. 6, the candidate antibody Nb103 can recognize the human IL-4R, but not mouse and cynomolgus monkey IL-4R.
ELISA was used again to verify whether the candidate antibody could cross-react with IL-4R protein of different monkey types. The detection method was the same as above. […]

mouse IL-4R = target: T1, mouse IL-4R; assay: ELISA, IL-4R coated at 1 ug/mL, anti-HA detection
Protocol: as §1

cynomolgus monkey IL-4R = cynomolgus monkey IL-4R (cynomolgus monkey, UniProt A0A2K5V580 33-239); assay: ELISA, IL-4R coated at 1 ug/mL, anti-HA detection
Protocol: as §1

[4] = target: T2, human IL-4R on cells (293F/IL-4R cells; …); assay: flow cytometry competition: antibody titrated against 5 ug/mL IL-4-biotin on 293F/IL-4R cells, SA-PE
Protocol: (1) A certain number of 293F/IL-4R cells that were transitioned for 48 h were centrifuged at 1000 rpm for 5 min, the supernatant was discarded, the cells were re-suspended and washed with PBS for once, and counted. The cells were divided into 96-well plates at 100 ul/well, and then centrifuged at 3000 rpm at 4° C. for 4 min. (2) The supernatant was aspirated, and the single-domain antibody with different sequences in gradient diluted in example 1 was added (two-fold gradient dilution starting from 40 ug/mL). 50 uL was added to each well, and then 50 uL of 5 ug/mL IL-4-biotin was added to mix, and incubated at 4° C. for 20 min. (3) Centrifugation was performed at 3000 rpm at 4° C. for 4 min, and the supernatant was discarded. 200 uL PBS was added to each well to wash the cells, and the supernatant was discarded by centrifugation again. Diluted SA-PE staining solution was added and incubated at 4° C. for 20 min. (4) Centrifugation was performed at 3000 rpm at 4° C. for 4 min, and the supernatant was discarded. 200 uL PBS was added to each well to wash the cells, and the supernatant was discarded by centrifugation again. 200 uL PBS was added to re-suspend the cells, and the PE signal of the samples was detected by flow cytometry.

Row | Binder | inhibition of TF-1 cell proliferation induced by IL-4 (CCK8, OD450) [1] [µg/mL] | inhibition of TF-1 cell proliferation induced by IL-13 (CCK8, OD450) [1] [µg/mL] | EC50 [2] [mg/L] | IC50 [3] [mg/L] | binding result (rhesus monkeys IL-4R) | binding result (mouse IL-4R) | binding result (cynomolgus monkey IL-4R) | IC50 [4] [mg/L]
1 | humanized antibody huNb103 (humanized single-domain antibody fused with Fc) (Fc fusion, called bivalent, so two chains; expressed in HEK293F; also called humanized bivalent antibody; human bivalent antibody) EVQLVESGGGLVQPGGSLRLSCAASGSTSYRYCMAWFRQAPGKGLEAVASIRPRSGRAYYADSVKGRFTISRDNSKNTLYLQMNSLRAEDTAVYYCAASDNDGNCQDYWGKGTLVTVSSESKYGPPCPPCPAPEFLGGPSVFLFPPKPKDTLMISRTPEVTCVVVDVSQEDPEVQFNWYVDGVEVHNAKTKPREEQFNSTYRVVSVLTVLHQDWLNGKEYKCKVSNKGLPSSIEKTISKAKGQPREPQVYTLPPSEEMTKNQVSLTCLVKGFYPSDIAVEWESNGQPENNYKTTPPVLDSDGSFFLYSRLTVDKSRWQEGNVFSCSVMHEALHNHYTQKSLSLSLG | 0.032 | 0.059 | 0.286 | 0.474 | – | – | – | –
2 | humanized tetravalent antibody tet-huNb103 (Fc fusion) EVQLVESGGGLVQPGGSLRLSCAASGSTSYRYCMAWFRQAPGKGLEAVASIRPRSGRAYYADSVKGRFTISRDNSKNTLYLQMNSLRAEDTAVYYCAASDNDGNCQDYWGKGTLVTVSSGGGGSGGGSEVQLVESGGGLVQPGGSLRLSCAASGSTSYRYCMAWFRQAPGKGLEAVASIRPRSGRAYYADSVKGRFTISRDNSKNTLYLQMNSLRAEDTAVYYCAASDNDGNCQDYWGKGTLVTVSSESKYGPPCPPCPAPEFLGGPSVFLFPPKPKDTLMISRTPEVTCVVVDVSQEDPEVQFNWYVDGVEVHNAKTKPREEQFNSTYRVVSVLTVLHQDWLNGKEYKCKVSNKGLPSSIEKTISKAKGQPREPQVYTLPPSEEMTKNQVSLTCLVKGFYPSDIAVEWESNGQPENNYKTTPPVLDSDGSFFLYSRLTVDKSRWQEGNVFSCSVMHEALHNHYTQKSLSLSLG | 0.02 | 0.026 | – | – | – | – | – | –
3 | IL-4R single-domain antibody Nb103 (VHH, also called candidate single-domain antibody Nb103; IL-4Ra Nb103 antibody; not shown: tag(s) from the pMECS phage vector) VHH: QVQLQESGGGSVQAGGSLRVSCAASGSTSYRYCMAWFRQAPGKEREAVASIRPRSGRAYYADSVKGRFTISLDNAKNTLYLQMNSLKPEDTAMYYCAASDNDGNCQDYWGKGTQVTVSS | 0.149 | 0.066 | – | – | no binding | no binding (tested: 2 ug/mL antibody) | no binding (tested: 2 ug/mL antibody) | 0.274
4 | Dupilumab (antibody, V domains shown) VH: EVQLVESGGGLEQPGGSLRLSCAGSGFTFRDYAMTWVRQAPGKGLEWVSSISGSGGNTYYADSVKGRFTISRDNSKNTLYLQMNSLRAEDTAVYYCAKDRLSITIRPRYYGLDVWGQGTTVTVSS VL: DIVMTQSPLSLPVTPGEPASISCRSSQSLLYSIGYNYLDWYLQKSGQSPQLLIYLGSNRASGVPDRFSGSGSGTDFTLKISRVEAEDVGFYYCMQALQTPYTFGQGTKLEIKR | – | – | 0.36 | 1.13 | – | – | – | 0.511
